{"source": "patent US20150307576A1", "about": "“FGF-10 COMPLEXES” (PERMEON BIOLOGICS, INC., priority 2012, published 2015)", "molecules": {"B1": {"name": "FGF10-p16: fusion protein of FGF10 domain and full length human p16, SEQ ID NO: 6 (protein)", "chain": "MEQKLISEEDLGSGRHVRSYNHLQGDVRWRKLFSFTKYFLKIEKNGKVSGTKKENCPYSILEITSVEIGVVAVKAINSNYYLAMNKKGKLYGSKEFNNDCKLKERIEENGYNTYASFNWQHNGRQMYVALNGKGAPRRGQKTRRKNTSAHFLPMVVHSGHGGGGSGGGGSMEPAAGSSMEPSADWLATAAARGRVEEVRALLEAGALPNAPNSYGRRPIQVMMMGSARVAELLLLHGAEPNCADPATLTRPVHDAAREGFLDTLVVLHRAGARLDVRDAWGRLPVDLAEELGHRDVARYLRAAAGGTRGSNHARIDAAEGPSDIPDGHGHHHHHH"}, "B2": {"name": "p16: human p16 tumor suppressor protein alone, SEQ ID NO: 5 (protein, listed as Homo sapiens)", "chain": "MEPAAGSSMEPSADWLATAAARGRVEEVRALLEAGALPNAPNSYGRRPIQVMMMGSARVAELLLLHGAEPNCADPATLTRPVHDAAREGFLDTLVVLHRAGARLDVRDAWGRLPVDLAEELGHRDVARYLRAAAGGTRGSNHARIDAAEGPSDIPD"}, "B3": {"name": "FGF10 E158K/K195A: FGF10 mutant with two substitutions E158K/K195A; domain variant in SEQ ID NO: 8 (protein)", "chain": "GRHVRSYNHLQGDVRWRKLFSFTKYFLKIEKNGKVSGTKKENCPYSILEITSVEIGVVAVKAINSNYYLAMNKKGKLYGSKEFNNDCKLKERIEKNGYNTYASFNWQHNGRQMYVALNGKGAPRRGQKTRRANTSAHFLPMVVHS"}, "B4": {"name": "FGF10 R78A: FGF10 mutant with one substitution R78A; domain variant in SEQ ID NO: 9 (protein)", "chain": "B3 chain with R15A, K95E, A132K"}, "B5": {"name": "tetramutant: variant of FGF10 domain with four substitutions at positions 78, 114, 158, 195, SEQ ID NO: 10 (protein)", "chain": "B3 chain with R15A, T51R, K95A"}}, "key": {"[1]": {"tested_on": "SKOV-3 ovarian cancer cells", "experiment": "SKOV-3 cell viability, MTS assay", "type": "cell-based, human", "settings": "100 uM, 4-hour treatment, 3 days of growth"}, "[2]": {"settings": "mouse, in vivo"}, "[3]": {"experiment": "Stability following multiple freeze/thaw cycles (protein concentration, analytical SEC)", "type": "physicochemical", "settings": "two freeze/thaw cycles", "experimental": "The stability of this cell penetrating domain of FGF10 was evaluated following multiple freeze/thaw cycles. To do this, protein concentration measurements and analytical size exclusion chromatography were carried out comparing protein which had undergone zero, one, or two freeze/thaw cycles. […] The study indicated about 75% stability of this protein after two freeze/thaw cycles.\nPurified protein was subjected to the indicated number of freeze/thaw cycles (each freeze/thaw cycle consisted of snap-freezing the protein in liquid nitrogen, placing it at −80° C. for a minimum of two hours, and then thawing it on ice) and analyzed by size exclusion chromatography. After each thaw, the protein was subjected to 20,000×g centrifugation to remove any precipitation. The protein concentration of each sample was measured by A280, considering the extinction coefficient (24540) and molecular weight (19.57 kDa). In each case 40 μL of the protein was applied to a Superdex 75 10/300 GL column (GE Healthcare). The column running buffer was the same as the protein storage buffer (20 mM Hepes, pH 7.5, 0.5 M NaCl)."}, "[4]": {"experiment": "Cellular distribution, microautoradiography (MARG)", "type": "in vivo, mice", "experimental": "To obtain specific cell-type uptake information in select organs, microautoradiography analysis was performed on selected organs collected at various time points. For microautoradiography analysis (MARG), animals were anesthetized and blood collected, as described above. Tissue samples are trimmed to be approximately 0.5 cm^2, placed into cryosectioning embedding media on a cryosectioning sample holder, and frozen in isopentane that is cooled with liquid nitrogen. Frozen samples were stored in liquid nitrogen until analysis by MARG. For analysis, tissues were cryosectioned at 5 μm under darkroom conditions, and collected onto glass slides that are pre-coated with photographic emulsion (Kodak NTB photographic emulsion). Slides were placed in sealed light-safe slide boxes and allowed to expose the photographic emulsion for 7 days before being developed, fixed and stained with hematoxylin and eosin. All slides were examined for cellular localization using light microscopy."}, "Hela cells": {"tested_on": "Hela cells", "experiment": "Cell penetrating activity, anti-myc flow cytometry", "type": "cell-based", "settings": "1 uM, 20 minutes", "experimental": "On the day prior to the assay, 10^6 Hela cells were plated in each well of a 6-well plate and incubated in the 37° C. CO2 incubator overnight. The cells were washed once with PBS and then were replenished with 1 mL of serum-free DEMEM (A) or media containing 1 uM of the FGF10 domain construct FGF10-myc (B, C, and D) and were incubated for 20 minutes in the 37° C. CO2 incubator. The cells were then washed three times with ice-cold PBS. For (C) and (D), cells were treated with 0.25% trypsin/EDTA and washed three times with PBS. The cells in (D) were fixed for 10 minutes with 1 mL 4% formaldehyde and permealized for 5 minutes with 0.2% saponin. Then 10 uL of 0.1 mg/mL FITC labeled chicken polyclonal anti-myc tag antibody (Abcam #1394) was added to all the cells and incubated at 4° C. in the dark for 2 hours. The cells were washed three times with ice cold PBS. Cells in (A) and (B) were detached with 1 mL 10 mM EDTA. Cells were analyzed using a BD Accuri™ C6 flow cytometer."}, "[5]": {"settings": "mouse, in vivo", "remark": "listed apart in the source"}, "[6]": {"tested_on": "HepG2, Hela and SW626 cells", "experiment": "Internalization of p16 fusion proteins, flow cytometry", "type": "cell-based", "settings": "2 uM, overnight", "experimental": "On the day prior to the assay, HepG2 (hepatoma), Hela cells, and 10^6 SW626 cells (ovarian) were plated in each well of a 6-well plate and incubated in the 37° C. CO2 incubator. The cells were washed once with PBS and then were replenished with 2 mL of growth media containing 2 uM of p16, +36GFP-p16 or FGF10-p16 proteins and were incubated overnight in the 37° C. CO2 incubator. The cells were then washed once with PBS and detached with 0.25% trypsin/EDTA. The cells were fixed for 10 minutes with 1 mL 4% formaldehyde and permeabilized for 5 minutes with 0.5 mL 0.4% saponin. Then 2.5 uL of 1 mg/mL FITC labeled chicken polyclonal anti-myc tag antibody (Abcam #1394) was added to all the cells and incubated at 4° C. in the dark for 2 hours, except for cells treated with +36GFP-p16 (GFP itself was used for detection). The cells were washed twice with ice cold PBS and were analyzed using a BD Accuri™ C6 flow cytometer."}, "FGFR2b receptor": {"biological_target": "FGFR2b receptor (Homo sapiens, UniProt P21802)", "sequence (P21802 22-822 isoform P21802-3 limits assumed)": "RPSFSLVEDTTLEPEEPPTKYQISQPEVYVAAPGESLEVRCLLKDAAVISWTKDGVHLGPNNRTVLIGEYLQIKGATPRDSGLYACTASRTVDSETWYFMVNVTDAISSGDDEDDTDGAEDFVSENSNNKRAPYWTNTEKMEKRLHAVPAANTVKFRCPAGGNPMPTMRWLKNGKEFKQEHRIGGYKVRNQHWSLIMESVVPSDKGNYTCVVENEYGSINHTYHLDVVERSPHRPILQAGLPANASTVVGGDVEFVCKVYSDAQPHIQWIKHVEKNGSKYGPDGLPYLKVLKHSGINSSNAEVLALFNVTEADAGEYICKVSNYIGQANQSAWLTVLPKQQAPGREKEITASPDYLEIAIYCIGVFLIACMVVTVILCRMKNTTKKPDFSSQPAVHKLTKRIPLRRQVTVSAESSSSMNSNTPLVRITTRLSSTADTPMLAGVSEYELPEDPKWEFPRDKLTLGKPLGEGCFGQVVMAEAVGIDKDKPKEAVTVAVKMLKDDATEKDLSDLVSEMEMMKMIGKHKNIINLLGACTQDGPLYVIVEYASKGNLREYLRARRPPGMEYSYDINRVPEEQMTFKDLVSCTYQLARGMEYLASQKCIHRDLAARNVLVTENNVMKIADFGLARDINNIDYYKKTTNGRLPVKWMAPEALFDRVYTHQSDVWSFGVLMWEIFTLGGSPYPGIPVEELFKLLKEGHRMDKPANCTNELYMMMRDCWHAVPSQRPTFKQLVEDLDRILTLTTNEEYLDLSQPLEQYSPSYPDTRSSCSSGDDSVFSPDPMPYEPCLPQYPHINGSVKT", "settings": "relative to unmodified FGF10; cited from earlier work"}, "mitogenic activity [7]": {"tested_on": "mitogenic activity", "settings": "relative to wild-type; cited from earlier work"}, "mitogenic activity [8]": {"tested_on": "mitogenic activity", "experiment": "Mitogenic activity of FGF10 variants", "settings": "tetramutant vs native FGF10"}, "[9]": {"settings": "trypsin, fixed and permeabilized"}}, "note": "Substitutions are numbered along the chain they refer to. Names and notes keep the numbering of the source. Read-outs that look alike come from different tables or passages of the source."}
{"molecule": "CC(=O)c1c(C)c2cnc(Nc3ccc(N4CCNCC4)cn3)nc2n(C2CCCC2)c1=O", "note": "[PD-0332991]", "values": [{"measurement": "inhibition of cell proliferation", "setting": "[1]", "value": "complete inhibition of cell proliferation"}]}
{"molecule": "FGF10", "values": [{"measurement": "partitioning between plasma compartment and blood cell compartment", "setting": "[2]", "value": "favor the plasma compartment"}, {"measurement": "stability after freeze/thaw cycles", "setting": "[3]; listed as His6-FGF10-myc", "value": 75, "unit": "%"}, {"measurement": "stability after freeze/thaw cycles", "setting": "[3]; listed as Hisx6-FGF10-Myc", "value": "about 75%"}, {"measurement": "cellular distribution in kidney", "setting": "[4]; kidney MARG", "value": "uniformly distributed throughout the kidney"}, {"measurement": "cellular distribution in liver", "setting": "[4]; liver MARG", "value": "uniformly distributed throughout the liver tissue including in hepatocytes"}, {"measurement": "cells with protein present on the cell membrane", "setting": "Hela cells; no trypsin", "value": 98.8, "unit": "%"}, {"measurement": "cells stained positive for FGF10 after trypsin treatment (internalized)", "setting": "Hela cells; [9]", "value": "almost all the cells stained positive"}, {"measurement": "levels of injected protein in liver, spleen, kidney, urinary bladder, adrenal gland, thyroid gland", "setting": "[5]", "value": "high levels"}]}
{"molecule": "B1", "values": [{"measurement": "treated cells stained positive", "setting": "[6]; [9]", "value": "~30", "unit": "%"}]}
{"molecule": "B2", "values": [{"measurement": "cell penetration", "setting": "[6]", "value": "does not"}]}
{"molecule": "B3", "values": [{"measurement": "decrease in binding to the FGFR2b receptor", "setting": "FGFR2b receptor", "value": "approximately 4 fold"}]}
{"molecule": "B4", "values": [{"measurement": "mitogenic activity", "setting": "mitogenic activity [7]", "value": "significant decrease"}, {"measurement": "decrease in binding to the FGFR2b receptor", "setting": "FGFR2b receptor", "value": "approximately 4 fold"}]}
{"molecule": "B5", "values": [{"measurement": "mitogenic activity", "setting": "mitogenic activity [8]", "value": "reduced mitogenic activity"}]}
